Reference: article PMC10960814

Assays:
[1] = molecular target: full-length human IR-A, Myc-tagged (pCS2-IR-A-Myc) (human) (UniProt P06213); experiment: competition-binding assay (fluorescent insulin on bead-bound receptor); IR-A-Myc or IR-B-Myc held on anti-c-Myc magnetic beads; 1 nM Alexa Fluor labeled human insulin and the indicated amount of homemade IGF2, 4 °C, 14 h; 20 mM Hepes pH 7.4, 200 mM NaCl, 0.03% DDM, 0.003% CHS, 100 nM BSA; fluorescence of the eluate
[2] = molecular target: full-length human IR-B, Myc-tagged (pCS2-IR-B-Myc) (human) (UniProt P06213); experiment: as above
[3] = molecular target: full-length human insulin receptor, B isoform (hIR-B), with a kinase-dead mutation, construct for structural studies (human); experiment: cryo-EM structure; purified hIR-A or hIR-B dimer fraction (20 mM HEPES-Na pH 7.5, 400 mM NaCl, 0.03% DDM) with refolded IGF2 added at a 2:8 (m/m) ratio, 2 h; saturated IGF2

Row | fold of binding affinity against IGF2 WT [1] [fold] | fold of binding affinity against IGF2 WT [2] [fold] | stoichiometry N (IGF2 per IR dimer (class 1, symmetric)) [3] | stoichiometry N (IGF2 per IR dimer (class 2, asymmetric)) [3] | stoichiometry N ([3]; scale: IGF2 per IR dimer) | Substance
1 | 3 | 3 | – | – | – | IGF2 R30A mutant (ligand)
2 | – | – | 4 | 3 | 2 | insulin-like growth factor 2 (IGF2), wild type, homemade (from UniProt P01344 25-91) (ligand)
